{"source": "paper PMC5019122", "binders": {"B1": {"name": "MutHGLL121 (fully mature PGT121 IgH with predicted germline IgL) (antibody, V domains shown)", "VH": "QMQLQESGPGLVKPSETLSLTCSVSGASISDSYWSWIRRSPGKGLEWIGYVHKSGDTNYSPSLKSRVNLSLDTSKNQVSLSLVAATAADSGKYYCARTLHGRRIYGIVAFNEWFTYFYMDVWGNGTQVTVSS", "VL": "SYVLTQPPSVSVAPGQTARITCGGNNIGSKSVHWYQQKPGQAPVLVVYDDSDRPSGIPERFSGSNSGNTATLTISRVEAGDEADYYCQVWDSSSDHPWVFGGGTKLTVL"}}, "molecular_target": "BG505-10MUT (HIV-1 (isolate BG505))", "assay": "SPR", "data": [{"binder": "B1", "values": [{"measurement": "Kd", "result": 47, "unit": "µM"}]}]}
